Data from US20230093708A1, “PROTEIN NANOPARTICLE DESIGN AND APPLICATION” (Duke University, priority 2020, published 2023).

B1: Tn3: UAA5-40-K8D4-ligand construct with DR5-targeting Tn3 ligand (SEQ ID NO: 62) (protein)
chain: AIEVKDVTDTTALITWAKPWVDPPPLWGIELTYGIKDVPGDRTTIDLQQKHTAYSIGNLKPDTEYEVSLISFDPYGMRSKPAKETFTT
B2: [S]-40-[QHN]-40: block co-polypeptide of two UCST blocks, (GRGDSPYS)40-(GRGDQPHN)40 (protein)
chain: GRGDSPYSGRGDSPYSGRGDSPYSGRGDSPYSGRGDSPYSGRGDSPYSGRGDSPYSGRGDSPYSGRGDSPYSGRGDSPYSGRGDSPYSGRGDSPYSGRGDSPYSGRGDSPYSGRGDSPYSGRGDSPYSGRGDSPYSGRGDSPYSGRGDSPYSGRGDSPYSGRGDSPYSGRGDSPYSGRGDSPYSGRGDSPYSGRGDSPYSGRGDSPYSGRGDSPYSGRGDSPYSGRGDSPYSGRGDSPYSGRGDSPYSGRGDSPYSGRGDSPYSGRGDSPYSGRGDSPYSGRGDSPYSGRGDSPYSGRGDSPYSGRGDSPYSGRGDSPYSGRGDQPHNGRGDQPHNGRGDQPHNGRGDQPHNGRGDQPHNGRGDQPHNGRGDQPHNGRGDQPHNGRGDQPHNGRGDQPHNGRGDQPHNGRGDQPHNGRGDQPHNGRGDQPHNGRGDQPHNGRGDQPHNGRGDQPHNGRGDQPHNGRGDQPHNGRGDQPHNGRGDQPHNGRGDQPHNGRGDQPHNGRGDQPHNGRGDQPHNGRGDQPHNGRGDQPHNGRGDQPHNGRGDQPHNGRGDQPHNGRGDQPHNGRGDQPHNGRGDQPHNGRGDQPHNGRGDQPHNGRGDQPHNGRGDQPHNGRGDQPHNGRGDQPHNGRGDQPHN
B3: [S]-80-[QHN]-40: block co-polypeptide of two UCST blocks, (GRGDSPYS)80-(GRGDQPHN)40 (protein)
chain: GRGDSPYSGRGDSPYSGRGDSPYSGRGDSPYSGRGDSPYSGRGDSPYSGRGDSPYSGRGDSPYSGRGDSPYSGRGDSPYSGRGDSPYSGRGDSPYSGRGDSPYSGRGDSPYSGRGDSPYSGRGDSPYSGRGDSPYSGRGDSPYSGRGDSPYSGRGDSPYSGRGDSPYSGRGDSPYSGRGDSPYSGRGDSPYSGRGDSPYSGRGDSPYSGRGDSPYSGRGDSPYSGRGDSPYSGRGDSPYSGRGDSPYSGRGDSPYSGRGDSPYSGRGDSPYSGRGDSPYSGRGDSPYSGRGDSPYSGRGDSPYSGRGDSPYSGRGDSPYSGRGDSPYSGRGDSPYSGRGDSPYSGRGDSPYSGRGDSPYSGRGDSPYSGRGDSPYSGRGDSPYSGRGDSPYSGRGDSPYSGRGDSPYSGRGDSPYSGRGDSPYSGRGDSPYSGRGDSPYSGRGDSPYSGRGDSPYSGRGDSPYSGRGDSPYSGRGDSPYSGRGDSPYSGRGDSPYSGRGDSPYSGRGDSPYSGRGDSPYSGRGDSPYSGRGDSPYSGRGDSPYSGRGDSPYSGRGDSPYSGRGDSPYSGRGDSPYSGRGDSPYSGRGDSPYSGRGDSPYSGRGDSPYSGRGDSPYSGRGDSPYSGRGDSPYSGRGDSPYSGRGDQPHNGRGDQPHNGRGDQPHNGRGDQPHNGRGDQPHNGRGDQPHNGRGDQPHNGRGDQPHNGRGDQPHNGRGDQPHNGRGDQPHNGRGDQPHNGRGDQPHNGRGDQPHNGRGDQPHNGRGDQPHNGRGDQPHNGRGDQPHNGRGDQPHNGRGDQPHNGRGDQPHNGRGDQPHNGRGDQPHNGRGDQPHNGRGDQPHNGRGDQPHNGRGDQPHNGRGDQPHNGRGDQPHNGRGDQPHNGRGDQPHNGRGDQPHNGRGDQPHNGRGDQPHNGRGDQPHNGRGDQPHNGRGDQPHNGRGDQPHNGRGDQPHNGRGDQPHN

Assays:
αvβ3 integrin = αvβ3 integrin (Homo sapiens, UniProt P05106+P06756); experiment: SPR of crosslinked and native pAzF diblock constructs; type: binding; settings: crosslinked UAA5-40-based constructs
Sequence of αvβ3 integrin (P06756 31-889 limits assumed): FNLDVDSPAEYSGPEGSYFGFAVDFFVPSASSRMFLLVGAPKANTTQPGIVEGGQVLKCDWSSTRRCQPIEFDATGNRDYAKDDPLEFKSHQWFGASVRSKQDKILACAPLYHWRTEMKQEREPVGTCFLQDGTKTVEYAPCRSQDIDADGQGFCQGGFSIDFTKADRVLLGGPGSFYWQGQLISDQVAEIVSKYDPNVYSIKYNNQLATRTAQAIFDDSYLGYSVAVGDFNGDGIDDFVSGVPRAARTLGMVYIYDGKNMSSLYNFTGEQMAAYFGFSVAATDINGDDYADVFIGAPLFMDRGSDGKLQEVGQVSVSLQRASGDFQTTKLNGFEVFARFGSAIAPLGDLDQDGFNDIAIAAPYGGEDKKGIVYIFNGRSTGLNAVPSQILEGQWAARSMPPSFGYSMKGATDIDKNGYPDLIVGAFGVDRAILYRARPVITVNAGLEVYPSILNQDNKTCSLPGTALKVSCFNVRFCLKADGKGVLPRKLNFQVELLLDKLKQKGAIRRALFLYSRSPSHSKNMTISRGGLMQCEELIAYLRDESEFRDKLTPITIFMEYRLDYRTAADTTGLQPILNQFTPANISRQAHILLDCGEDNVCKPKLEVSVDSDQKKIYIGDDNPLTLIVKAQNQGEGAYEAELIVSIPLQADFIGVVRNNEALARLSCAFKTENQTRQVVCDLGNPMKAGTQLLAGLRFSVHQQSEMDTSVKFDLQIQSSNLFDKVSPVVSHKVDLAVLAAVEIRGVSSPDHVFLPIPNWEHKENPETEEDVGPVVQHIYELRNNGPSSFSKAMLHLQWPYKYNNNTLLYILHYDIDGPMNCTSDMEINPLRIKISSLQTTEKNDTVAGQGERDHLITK
Sequence of αvβ3 integrin (P06756 891-1048 partner limits assumed): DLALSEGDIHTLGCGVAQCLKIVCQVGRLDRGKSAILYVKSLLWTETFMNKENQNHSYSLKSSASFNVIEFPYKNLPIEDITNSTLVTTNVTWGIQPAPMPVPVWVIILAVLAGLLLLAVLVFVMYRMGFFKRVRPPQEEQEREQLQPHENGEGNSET
Sequence of αvβ3 integrin (P05106 27-788): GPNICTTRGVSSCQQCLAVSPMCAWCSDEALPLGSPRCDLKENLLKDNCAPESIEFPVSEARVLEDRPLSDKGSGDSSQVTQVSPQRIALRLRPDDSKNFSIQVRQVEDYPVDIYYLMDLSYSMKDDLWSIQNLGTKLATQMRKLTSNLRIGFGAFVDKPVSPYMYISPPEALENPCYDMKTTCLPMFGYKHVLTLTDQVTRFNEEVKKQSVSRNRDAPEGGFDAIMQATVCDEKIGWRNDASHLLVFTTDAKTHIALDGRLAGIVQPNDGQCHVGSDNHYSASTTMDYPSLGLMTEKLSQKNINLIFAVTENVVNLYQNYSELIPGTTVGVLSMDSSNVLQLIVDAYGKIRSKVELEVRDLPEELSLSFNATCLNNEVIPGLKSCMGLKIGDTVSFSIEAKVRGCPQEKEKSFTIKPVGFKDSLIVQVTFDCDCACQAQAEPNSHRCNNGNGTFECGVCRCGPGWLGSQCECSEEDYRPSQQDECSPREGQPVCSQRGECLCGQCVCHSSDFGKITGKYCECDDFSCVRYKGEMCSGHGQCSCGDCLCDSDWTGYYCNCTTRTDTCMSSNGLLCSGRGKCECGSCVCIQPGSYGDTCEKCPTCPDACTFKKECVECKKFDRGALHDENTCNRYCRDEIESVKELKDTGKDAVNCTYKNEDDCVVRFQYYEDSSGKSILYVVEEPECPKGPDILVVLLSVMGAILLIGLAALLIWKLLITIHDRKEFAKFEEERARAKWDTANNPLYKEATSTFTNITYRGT
Description: (§1) Though we were interested in the downstream effects of the treatment with crosslinked nanoparticles, we also wanted to investigate how chemical crosslinking affected the binding to the cell membrane receptors themselves. For this, the binding affinities of crosslinked and native diblock architectures were evaluated using surface plasmon resonance (SPR).
To characterize the integrin-targeting constructs, we started by determining the KD values of the UAA5-40-based constructs. […] A closer look at the SPR sensograms describes the mechanism for this effect where the main reason for the increased KD for the ligands is a result of vastly different association rates (kon) rather than differences in koff.

DR5 = DR5 (Homo sapiens, UniProt O14763); experiment: SPR of DR5-targeting UAA5-40 constructs; type: binding; settings: native construct, same concentration range
Description: as §1
This extremely good binding constant can be mainly attributed to the koff rate which is so low that it is most probably even below the limit of detection of the SPR instrument. As opposed to the integrin-targeting UAA5-40 particles, we however also observed very strong binding for the native Tn3 construct in the same concentration range (FIG. 53B). […] Principally, this was not a too unexpected result since we already knew that apoptosis induction via DR5-binding required downstream trimerization of the ligand-bound DR5 receptors in the cell membrane. Therefore, we had expected that the reported multivalency requirement for Tn3-action was at least partly stemming from this mechanistic effect rather than the DR5-binding itself.

[1] = Critical micelle concentration by pyrene I1/I3 fluorescence; type: physicochemical; settings: inflection point of sigmoidal fit, triplicate data
Description: Key parameters of interest are the hydrophilicity of the corona-forming block, the hydrophilicity of the core block, the overall length of the co-polypeptide and the ratio of the two blocks. Parameters of evaluation are the size, morphology, stability, and thermoresponsive behavior. All measurements were made in 140 mM NaCl, 10 mM phosphate buffer, 3 mM KCl, pH 7.4 unless otherwise specified. Size was evaluated by the hydrodynamic radios (Rh) and radius of gyration (Rg) by dynamic light scattering (DLS) and static light scattering (SLS) respectively. Rg and Rh can be combined to yield the shape factor ρ=Rg/Rh, which provides a rough indication of the morphology of the scatterer. […] For an elongated scatterer, the shape factor depends upon the aspect ratio. A combination of temperature dependent turbidity and DLS was utilized to determine the phase behavior of the block co-polypeptides. Cryogenic transmission electron microscopy (Cryo-TEM) was utilized to evaluate the morphology and provide crucial insight into the hydration of the core/corona chains. Stability of the assembled nanostructure was determined by a shift in the I1/I3 fluorescent bands of pyrene as described previously.
All of these modifications to the core and corona chains prompted us to measure the critical micelle concentration (CMC) of these micelle constructs. […]

[2] = Static and dynamic light scattering (SLS/DLS) of block co-polypeptides; type: physicochemical; settings: for ρ / Nagg / Rg(nm) / Rh (nm): Table 9; for ρ: Rg/Rh; for Nagg / Rg(nm) / Rh (nm): UCST-UCST block co-polypeptides
In short: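 Samples at 10 μM in PBS (140 mM NaCl, 10 mM phosphate, 3 mM KCl, pH 7.4), filtered 0.45 μm, measured at 15 °C over 30°–150° in 5° steps. Rh from cumulant fit of DLS, extrapolated to zero angle. Rg and MW from partial Zimm plots of SLS.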

[3] = Temperature-programmed dynamic light scattering; type: physicochemical; settings: upon cooling
Description: Temperature-programmed dynamic light scattering experiments were carried out using a Dynapro plate reader (Wyatt Technology; Santa Barbara, Calif.) with samples filtered through 0.45 μm Millex-GV filters. Data were collected at increments of 1° C., and the cumulant fit hydrodynamic radius was taken as the radius. The Tt was defined as the temperature at which aggregates of size hundreds of nanometers were formed.
Each block co-polypeptide was analyzed by dynamic light scattering (DLS) at several temperatures between 4° C. and 37° C. to determine the thermal stability of the micelles, and to determine their radius of hydration (Rh). […] In contrast, RLP40-ELP80 (SEQ ID NO: 84) and RLP40-ELP80-Fn3 (SEQ ID NO: 96) self-assembled into micelles with a Rh of 30 and 32 nm, respectively, between 20-37° C. (FIG. 15).
Therefore, to get a more accurate picture, we monitored the Rh as we slowly cooled the solution. We observed two different overall behaviors. [S]-40-[QHN]-40 (SEQ ID NO: 100) upon cooling underwent a clear unimer to micelle transition at ˜55° C. and a clear micelle to aggregate transition at 28° C. (FIG. 32B). A unimer to micelle transition that is temperature dependent is known as the critical micellization temperature (CMT). As we know from before, this UCST aggregation temperature is dependent on the solution concentration. [S]-80-[QHN]-40 (SEQ ID NO: 101) remained a micelle at the highest temperature we could measure with the instrument. Upon cooling the size of the aggregate increased slightly until a clear aggregate transition at 18° C.

Molecule	Kd (αvβ3 integrin)	Kd (DR5)	critical micelle concentration (CMC) [1]	aggregation number (Nagg) [2]	hydrodynamic radius (Rh) [2]	radius of gyration (Rg) [2]	ρ [2]	Nagg [2]	Rg(nm) [2]	Rh (nm) [2]	micelle to aggregate transition (UCST aggregation) [3]	unimer to micelle transition (critical micellization temperature, CMT) [3]	shape factor / form factor (Rg/Rh) [2]
GRGDSPAS: UAA5-40-K8D4-ligand construct with integrin-targeting GRGDSPAS ligand (SEQ ID NO: 76)	20 nM												
B1		0.25 nM											
B2			3 µM	43	28.4 nm	35.1 nm	1.2	43	35.1 nm	28.4 nm	28 °C	~55 °C	
B3			0.4 µM				1.2	1430	75.7 nm	62.8 nm	18 °C		> 1
